Source: paper PMC10588359

Columns and labels:
[1] = biological target: CaMKK1_(67–480) D293A, unphosphorylated (human) (UniProt Q8N5S9); assay: AUC; sedimentation velocity of CaMKKs alone at two concentrations (CaMKK1 at 10 μM); 50 mM Tris–HCl pH 7.5, 150 mM NaCl, 1 mM TCEP; 20°C, 42,000 rpm; monomer to dimer
[2] = biological target: dansyl-labeled calmodulin (DANS-CaM), Ca2+-bound (rat) (UniProt P0DP29); assay: fluorescence polarisation; 2 μM DANS-CaM titrated with CaMKK (30 μM and binary dilution series), 1 h incubation; 10 mM HEPES-NaOH pH 7.4, 150 mM NaCl, 1 mM CaCl2, 0.1% Tween 20, 0.1% BSA; one-site-binding model
[3] = biological target: dansyl-labeled calmodulin (DANS-CaM), Ca2+-bound (rat) (UniProt P0DP29); assay: fluorescence polarisation; as a1 but with 60 μM 14-3-3γ present: 2 μM DANS-CaM titrated with CaMKK (30 μM and binary dilution series), 1 h incubation; 10 mM HEPES-NaOH pH 7.4, 150 mM NaCl, 1 mM CaCl2, 0.1% Tween 20, 0.1% BSA; one-site-binding model

Substance | stoichiometry N [1] | Kd [2] [nM] | Kd [3] [nM]
CaMKK1_(67–480) D293A, unphosphorylated (from UniProt Q8N5S9 67-480) (domain or fragment) | 2 | – | –
CaMKK2(93-517) D330A, unphosphorylated (from UniProt Q96RR4 93-517) (domain or fragment) | – | 560 | 510
pCaMKK2: CaMKK2(93-517) D330A phosphorylated by PKA at four sites (from UniProt Q96RR4 93-517) (domain or fragment) | – | 3550 | > 10800
